How the values were obtained:
[1] = target: mouse RAGE VC1 domain triple mutant R216A-R217H-R218A (mouse); experiment: ELISA; methods: 200 ng mRAGE-WT or mRAGE-AHA coated on the plate, 1% BSA block, biotinylated HMGB1 50-1000 ng/ml for 2 hr, streptavidin-HRP; the legend says HMGB1 was immobilised; apparent Kd
[2] = target: T1, high mobility group Box 1 (HMGB1) (UniProt P63158 1-215, biotin (in the HMGB1 binding ELISA of p-0047; immobilised without a stated label in the ELISA of p-0044)); experiment: as above; conditions: both partners purified
T1 construct: HMGB1; also called biotinylated HMGB1
T1 sequence (looked up): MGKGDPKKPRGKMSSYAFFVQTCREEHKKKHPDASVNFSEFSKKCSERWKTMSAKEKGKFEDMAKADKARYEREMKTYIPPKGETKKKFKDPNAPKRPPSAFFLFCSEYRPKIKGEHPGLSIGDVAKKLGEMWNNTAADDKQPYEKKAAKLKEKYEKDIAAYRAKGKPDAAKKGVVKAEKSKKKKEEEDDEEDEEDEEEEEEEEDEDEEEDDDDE

[3] = target: T2, mouse RAGE VC1 domain triple mutant R216A-R217H-R218A; experiment: gel filtration (Superdex 200); conditions: chain shown with the change; incubated with HS dodecasaccharide (H12); Superdex 200 (10/300 mm) gel filtration column; parent: est. 13; read off a plot
T2 chain: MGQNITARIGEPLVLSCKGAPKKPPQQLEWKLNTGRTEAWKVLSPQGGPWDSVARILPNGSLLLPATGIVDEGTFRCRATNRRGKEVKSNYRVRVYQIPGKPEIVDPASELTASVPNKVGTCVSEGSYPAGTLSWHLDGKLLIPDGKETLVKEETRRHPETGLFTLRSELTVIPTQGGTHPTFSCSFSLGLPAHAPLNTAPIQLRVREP

high mobility group Box 1 (HMGB1) (from UniProt P63158 1-215) (ligand)
Kd [1]: 0.0099 µM

B1: wild-type mouse RAGE VC1 domain (domain or fragment, UniProt Q62151 23-231, looked up)
chain: GQNITARIGEPLVLSCKGAPKKPPQQLEWKLNTGRTEAWKVLSPQGGPWDSVARILPNGSLLLPATGIVDEGTFRCRATNRRGKEVKSNYRVRVYQIPGKPEIVDPASELTASVPNKVGTCVSEGSYPAGTLSWHLDGKLLIPDGKETLVKEETRRHPETGLFTLRSELTVIPTQGGTHPTFSCSFSLGLPRRRPLNTAPIQLRVREPG
notes: RAGE (receptor for advanced glycation end-products, Ager), mouse, V and C1 immunoglobulin domains; also called WT-mVC1; mVC1-WT; source: E. coli, purified (HiTrap SP cation exchange, SEC on Superdex 200)
Kd [2]: 0.0117 µM

B2: wild-type mouse RAGE VC1 domain, Q62151 R216A; R217H; R218A (protein)
chain: T2 chain
other: gel filtration elution volume of main peak in presence of H12 [3]: 14 mL

Source: paper PMC8863369, “Heparan sulfate-dependent RAGE oligomerization is indispensable for pathophysiological functions of RAGE” (eLife, 2022)
